The record followed here is US20220251236A1 (Boehringer Ingelheim, published 2022).

B1: DLL3#17/CD3#1 (bispecific antibody, human IgG1, kappa, lambda, L234A L235A)
chain 1: DIQMTQSPASLAASVGETVTITCRASENIYYSLAWYQQKQGKSPQLLIYNTNSLEDGVPSRFSGSGSGTQYSMKINSMQPEDTATYFCKQAYDFPLTFGAGTKLELKRTVAAPSVFIFPPSDEQLKSGTASVVCLLNNFYPREAKVQWKVDNALQSGNSQESVTEQDSKDSTYSLSSTLTLSKADYEKHKVYACEVTHQGLSSPVTKSFNRGECGGGGSEGKSSGSGSESKSTEGKSSGSGSESKSTGGGGSQIQLQQSGPEVVKPGASVKISCKASGYTFISYYIHWVKQRPGQGLEWIGWIYPGDGSTNNNEKFKGKTTLTADKSSSTAYMLLSSLTSEDSAVYFCARGEGNAMDDWGQGTSVTVSSASTKGPSVFPLAPSSKSTSGGTAALGCLVKDYFPEPVTVSWNSGALTSGVHTFPAVLQSSGLYSLSSVVTVPSSSLGTQTYICNVNHKPSNTKVDKRVEPKSCDKTHTCPPCPAPEAAGGPSVFLFPPKPKDTLMISRTPEVTCVVVDVSHEDPEVKFNWYVDGVEVHNAKTKPREEQYNSTYRVVSVLTVLHQDWLNGKEYKCKVSNKALPAPIEKTISKAKGQPREPQVYTLPPSREEMTKNQVSLWCLVKGFYPSDIAVEWESNGQPENNYKTTPPVLDSDGSFFLYSKLTVDKSRWQQGNVFSCSVMHEALHNHYTQKSLSLSPG
chain 2: EAVVTQEPSLTVSPGGTVTLTCRSSTGAVTTSNYANWVQEKPGQLPRGLIGGTNKRAPWVPARFSGSLLGGKAALTLSGAQPEDEAEYFCALWYSNLWVFGGGTKLTVLGQPKAAPSVTLFPPSSEELQANKATLVCLISDFYPGAVKVAWKADGSPVNTGVETTTPSKQSNNKYAASSYLSLTPEQWKSHRSYSCQVTHEGSTVEKTVAPAECSGGGGSEGKSSGSGSESKSTEGKSSGSGSESKSTGGGGSEVQLVESGGGLVQPGGSLKLSCAASGFTFNTYAMNWVRQAPGKGLEWVARIRSKYNNYATYYADSVKDRFTISRDDSKNTAYLQMNNLKTEDTAVYYCVRHGNFGNSYVSWFAYWGQGTLVTVSAASTKGPSVFPLAPSSKSTSGGTAALGCLVKDYFPEPVTVSWNSGALTSGVHTFPAVLQSSGLYSLSSVVTVPSSSLGTQTYICNVNHKPSNTKVDKRVEPKSCDKTHTCPPCPAPEAAGGPSVFLFPPKPKDTLMISRTPEVTCVVVDVSHEDPEVKFNWYVDGVEVHNAKTKPREEQYNSTYRVVSVLTVLHQDWLNGKEYKCKVSNKALPAPIEKTISKAKGQPREPQVYTLPPSREEMTKNQVSLSCAVKGFYPSDIAVEWESNGQPENNYKTTPPVLDSDGSFFLVSKLTVDKSRWQQGNVFSCSVMHEALHNRFTQKSLSLSPG
notes: Heterodimer of one DLL3 chain and one CD3 chain (scFab-Fc, knob-in-hole)
B2: DLL3#13/CD3#1 (bispecific antibody, human IgG1, kappa, lambda, L234A L235A)
chain 1: DVLMTQTPLSLPVSLGDQAAISCRSSQSIVHSNGNTYLEWYLQKPGQSPKVLIYKVSNRFSGVPDRFSGSGSGTDFTLKISRVEAEDLGVYYCFQGSHVPYTFGGGTKLEIKRTVAAPSVFIFPPSDEQLKSGTASVVCLLNNFYPREAKVQWKVDNALQSGNSQESVTEQDSKDSTYSLSSTLTLSKADYEKHKVYACEVTHQGLSSPVTKSFNRGECGGGGSEGKSSGSGSESKSTEGKSSGSGSESKSTGGGGSQIQLVQSGPELKKPGETVKISCKASGYTFTNYGVTWVKQAPGKGLKWMGWINTYSGAPTYADDFNGRFALSLETSASTAYLQINNLKNEDTATYFCARLDDYDLYYFDYWGQGTALTVSSASTKGPSVFPLAPSSKSTSGGTAALGCLVKDYFPEPVTVSWNSGALTSGVHTFPAVLQSSGLYSLSSVVTVPSSSLGTQTYICNVNHKPSNTKVDKRVEPKSCDKTHTCPPCPAPEAAGGPSVFLFPPKPKDTLMISRTPEVTCVVVDVSHEDPEVKFNWYVDGVEVHNAKTKPREEQYNSTYRVVSVLTVLHQDWLNGKEYKCKVSNKALPAPIEKTISKAKGQPREPQVYTLPPSREEMTKNQVSLWCLVKGFYPSDIAVEWESNGQPENNYKTTPPVLDSDGSFFLYSKLTVDKSRWQQGNVFSCSVMHEALHNHYTQKSLSLSPG
chain 2: B1 chain 2
notes: as for B1
B3: DLL3#18/CD3#1 (bispecific antibody, human IgG1, kappa, lambda, L234A L235A)
chain 1: DIQMTQSPASLAASVGETVTITCRASENIYYSLAWYQQKQGKSPQLLIYNANSLEDGVPSRFSGSGSGTQYSMKINNMQPEDTATYFCKQAYDVPLTFGAGTKLELKRTVAAPSVFIFPPSDEQLKSGTASVVCLLNNFYPREAKVQWKVDNALQSGNSQESVTEQDSKDSTYSLSSTLTLSKADYEKHKVYACEVTHQGLSSPVTKSFNRGECGGGGSEGKSSGSGSESKSTEGKSSGSGSESKSTGGGGSQVQLQQSGPDLVKPGASVKMSCEASGYTFTAYFIHWVKQKPGQGLEWIGYIDPFNDDTNYNVKFKGKATLTSDTSSSIAYMELSSLTSEDSSFYYCARGTSATLDYWGHGTTLTVSSASTKGPSVFPLAPSSKSTSGGTAALGCLVKDYFPEPVTVSWNSGALTSGVHTFPAVLQSSGLYSLSSVVTVPSSSLGTQTYICNVNHKPSNTKVDKRVEPKSCDKTHTCPPCPAPEAAGGPSVFLFPPKPKDTLMISRTPEVTCVVVDVSHEDPEVKFNWYVDGVEVHNAKTKPREEQYNSTYRVVSVLTVLHQDWLNGKEYKCKVSNKALPAPIEKTISKAKGQPREPQVYTLPPSREEMTKNQVSLWCLVKGFYPSDIAVEWESNGQPENNYKTTPPVLDSDGSFFLYSKLTVDKSRWQQGNVFSCSVMHEALHNHYTQKSLSLSPG
chain 2: B1 chain 2
notes: as for B1

T2 sequence (chain, as listed by the source limits assumed): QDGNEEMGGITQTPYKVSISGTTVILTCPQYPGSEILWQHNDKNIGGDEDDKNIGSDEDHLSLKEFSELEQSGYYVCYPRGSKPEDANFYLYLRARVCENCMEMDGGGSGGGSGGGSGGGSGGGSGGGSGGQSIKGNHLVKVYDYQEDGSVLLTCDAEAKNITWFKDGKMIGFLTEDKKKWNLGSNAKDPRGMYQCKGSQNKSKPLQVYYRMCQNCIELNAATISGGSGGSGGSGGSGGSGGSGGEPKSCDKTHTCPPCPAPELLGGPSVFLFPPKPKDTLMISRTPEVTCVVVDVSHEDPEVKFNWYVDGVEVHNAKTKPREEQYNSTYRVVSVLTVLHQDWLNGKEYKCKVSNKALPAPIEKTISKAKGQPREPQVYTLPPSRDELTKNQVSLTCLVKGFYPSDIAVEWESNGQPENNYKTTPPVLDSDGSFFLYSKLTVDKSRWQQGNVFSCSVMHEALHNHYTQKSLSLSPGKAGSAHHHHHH

In one assay the target is T1, trypsin inhibitor from glycine max soybean (Glycine max (soybean)).
T1 construct: also called Tryp
T1 sequence (P01070 25-205): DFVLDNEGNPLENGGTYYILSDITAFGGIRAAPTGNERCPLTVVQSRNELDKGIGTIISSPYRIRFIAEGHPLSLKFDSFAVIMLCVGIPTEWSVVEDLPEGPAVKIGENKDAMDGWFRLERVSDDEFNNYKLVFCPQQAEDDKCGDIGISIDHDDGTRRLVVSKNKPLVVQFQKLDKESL
Kind of assay: SPR (Biacore T200), trypsin inhibitor on CM5 chip, sample at 1 µM. An excerpt: To prepare the surface for the non-specific binding experiment, chicken egg white lysozyme and trypsin inhibitor from glycine max soybean were coupled manually to a series S CM5 chip with the surface density of 3000-5000 RU using the amine coupling kit according to the manufacture instructions.
On the technique in general: SPR reads the build-up and loss of mass on a sensor chip optically.
As to B1, the “Non-specific binding (RU)” value came to 8 RU.

B2: the “Non-specific binding (RU)” value was found to be 3 RU.

Regarding B3, the “Non-specific binding (RU)” value stood at 81 RU.

The next assay addresses T2, Human CD3 E+G HuFc-6xHis (human).
T2 construct: also called hu CD3εγ-Fc
Put plainly: SPR (ProteOn XPR36), HuCD3E_HuCD3G-Fc amine-coupled, bispecific as analyte, Example 4B. The gist of the method: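 SPR kinetics with the bispecific constructs flowed as analyte over a directly amine-coupled (pH 4.5 acetate) human CD3εγ-Fc surface. Association runs 600 s and dissociation 1800 s, at 30 μl/min in PBS-T-EDTA.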
B1: the affinity, expressed as Kd, was 2 nM.

As for B2, the Kd was determined as 3 nM.

B3 displayed a Kd of 3 nM.

For another assay, the target named is T3, Human DLL3-His (human, UniProt Q9NYJ7 27-492).
T3 construct: also called huDLL3-His; hu DLL3
T3 sequence: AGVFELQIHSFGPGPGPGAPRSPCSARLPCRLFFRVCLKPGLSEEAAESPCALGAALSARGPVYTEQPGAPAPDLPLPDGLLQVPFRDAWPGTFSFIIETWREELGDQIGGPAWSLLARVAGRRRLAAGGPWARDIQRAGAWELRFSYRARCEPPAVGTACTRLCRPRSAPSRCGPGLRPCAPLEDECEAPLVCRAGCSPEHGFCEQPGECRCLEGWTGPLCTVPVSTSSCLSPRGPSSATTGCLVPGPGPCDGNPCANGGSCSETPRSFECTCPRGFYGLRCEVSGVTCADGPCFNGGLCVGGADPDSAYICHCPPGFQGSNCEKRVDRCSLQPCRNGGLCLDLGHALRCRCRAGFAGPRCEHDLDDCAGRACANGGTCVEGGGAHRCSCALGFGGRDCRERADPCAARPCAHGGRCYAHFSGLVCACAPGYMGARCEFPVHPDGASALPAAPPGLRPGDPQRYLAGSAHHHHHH
Kind of assay: SPR (ProteOn XPR36), bispecific captured on protein A/G, hu DLL3 as analyte, Example 4B. The gist of the method: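 Bispecific constructs captured on protein A/G for 200 s at 30 μl/min, baseline stabilized with PBS-T-EDTA. Human DLL3 analyte injected 300 s at 30 μl/min; dissociation followed for 1800 s.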
B1 displayed a Kd of less than 0.02 nM.

With B2, binding was put at a Kd of 0.023 nM.

Regarding B3, the Kd is less than 0.02 nM.

The next assay deals with T4, EGF5+6.
T4 construct: also called Hu DLL3 EGF5+6 on HEK293 cells
T4 membrane-anchored DLL3 subdomain construct: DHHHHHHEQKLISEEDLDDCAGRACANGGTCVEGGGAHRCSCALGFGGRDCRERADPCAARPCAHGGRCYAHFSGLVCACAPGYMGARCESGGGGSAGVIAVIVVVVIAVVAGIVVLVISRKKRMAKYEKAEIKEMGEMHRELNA
Put plainly: flow cytometry on HEK293 cells expressing the DLL3 subdomain construct, PE anti-human secondary, control: secondary antibody only. The procedure, abridged:
(§1)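 Binders tested on HEK293 cells displaying the DLL3 subdomain construct; bound molecules detected by flow cytometry using PE-conjugated anti-human secondary antibody. Negative control: cells with secondary antibody only.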
In the case of B1, the binding result was “no binding (tested: 1.6 nM)”.

For the molecule B2, the binding result is given as “no binding (tested: 1.6 nM)”.

As for B3, the binding result is given as “no binding (tested: 1.6 nM)”.

For a further assay, the target named is T5, EGF6+MEMBRANE PROXIMAL PEPTIDE.
T5 construct: also called Hu DLL3 EGF6+membrane proximal peptide on HEK293 cells
T5 membrane-anchored DLL3 subdomain construct: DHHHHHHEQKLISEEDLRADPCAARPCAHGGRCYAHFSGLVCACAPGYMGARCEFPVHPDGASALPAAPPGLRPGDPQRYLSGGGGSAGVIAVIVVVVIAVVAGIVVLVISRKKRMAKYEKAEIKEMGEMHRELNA
The assay is described as above. The procedure, abridged: as §1
Regarding B1, the binding result was “no binding (tested: 1.6 nM)”.

As for B2, the binding result was “no binding (tested: 1.6 nM)”.

Take B3: the binding result was “no binding (tested: 1.6 nM)”.

For orientation: Kd means the equilibrium constant for the complex coming apart. A higher Kd goes with a looser complex.
